From US20060140870A1, “Method for assessing tumor response to cancer treatment” (General Electric Company, priority 2004, published 2006) come the findings set out here.

The data set in a line: Relaxivity (T1) of the contrast agent as a measure of molecular conformation. As to conditions: low for an elongated conformation, high for a globular (folded) one. Type of data set: physicochemical.

Take “Polylysine-Gd-DTPA [Gd- DTPA polylysine]”: the relaxivity result is “about 8 sec.−1 mM−1”.
As for albumen, the relaxivity result is “about 15 sec.−1 mM−1”.
